Biological target: T1, recombinant human Tie1-Fc (Homo sapiens, UniProt P35590)
T1 construct: selected against the Tie1 extracellular domain fused to human Fc or to a histidine purification tag
T1 sequence (P35590 22-759 limits assumed): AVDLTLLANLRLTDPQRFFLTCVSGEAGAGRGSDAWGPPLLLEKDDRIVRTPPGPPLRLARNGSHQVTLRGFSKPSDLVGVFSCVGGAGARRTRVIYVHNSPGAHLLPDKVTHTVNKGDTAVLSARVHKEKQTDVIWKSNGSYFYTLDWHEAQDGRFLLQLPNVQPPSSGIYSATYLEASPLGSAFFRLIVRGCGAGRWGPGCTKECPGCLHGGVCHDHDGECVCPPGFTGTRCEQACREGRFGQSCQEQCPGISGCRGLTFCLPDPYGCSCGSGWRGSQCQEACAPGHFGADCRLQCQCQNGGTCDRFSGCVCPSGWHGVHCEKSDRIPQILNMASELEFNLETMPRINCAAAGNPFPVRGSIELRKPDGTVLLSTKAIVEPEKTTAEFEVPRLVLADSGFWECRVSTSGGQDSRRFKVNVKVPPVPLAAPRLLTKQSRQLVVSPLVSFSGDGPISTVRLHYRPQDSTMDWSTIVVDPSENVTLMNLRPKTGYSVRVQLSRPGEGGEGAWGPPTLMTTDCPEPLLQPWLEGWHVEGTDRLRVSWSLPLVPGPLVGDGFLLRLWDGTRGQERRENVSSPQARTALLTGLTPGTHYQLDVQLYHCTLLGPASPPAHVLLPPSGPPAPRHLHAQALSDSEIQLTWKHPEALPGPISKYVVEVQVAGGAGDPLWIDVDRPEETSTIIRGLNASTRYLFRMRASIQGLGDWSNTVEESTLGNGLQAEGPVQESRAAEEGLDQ
Test: ELISA on recombinant human Tie-1-Fc
Assay type: binding
Settings: soluble Fab 5 or 1 μg per 100 μl; 500 or 50 ng antigen per well
Experimental: To evaluate if the conversion of any of the somatic mutations in the framework of E3 back to germline residues had any effect on binding activity the soluble Fabs were produced. The soluble expression vector containing the parental E3 Fab and the germlined E3 Fab construct were grown overnight at 30° C. in 2×TY broth containing 100 μg/ml ampicillin and 2% glucose and use 4 ml of this overnight culture to inoculate 400 ml of 2×TY broth containing 100 μg/ml ampicillin and 0.1% glucose. Cells were grow at 37° C. until an OD600 of 0.8-1.0, 1 mM IPTG was added and the culture was maintained at 30° C. for 4 hours. The cultures were spun down at 4,000 rpm for 15 min at 4° C. […] Dialyze against PBS using dialysis cassettes (SLIDE-A-LYSER™ Dialysis Cassettes, MWCO 10,000, Pierce, cat. no. 66380) and determine the protein concentration from the absorbance at 280 nm assuming that a 1 mg/ml solution has an absorbance of 0.86. The quality of the preparations can be analyzed by reducing and non-reducing SDS-PAGE.
Wells of an IMMULON™ 2 HB plate coated overnight with 500 ng or 50 ng of purified recombinant human Tie-1-Fc target antigen per 100 microliters 0.1 M sodium bicarbonate buffer, pH 8.5. […] After washing the wells seven times 100 microliters TMB-H2O2 solution was added to each well and the plate read at 630 nm in an ELISA. […]

B1: E3: human anti-Tie1 antibody from Fab phage library; HC SEQ ID NO:114, LC SEQ ID NO:116 (antibody, V domains shown)
VH: EVQLLESGGGLVQPGGSLRLSCAASGFTFSMYGMVWVRQAPGKGLEWVSVISPSGGNTGYADSVKGRFTISRDNSKNTLYLQVNSLRAEDTAVYYCARAPRGYSYGYYYWGQGTLVTVSSASTKGPSVFPLAPSSKSTSGG
VL: DIQMTQSPLSLSASVGDRVTITCRASQGIGHYLAWYQQKPGKVPKLLIYTASTLQSGVPSRFSGSGSGTDFTLTINSLQPEDVATYYCQQFNSYPHTFGQGTRLDIK
modifications: Synthetically generated peptide
binding to recombinant human Tie-1-Fc in ELISA: bound

Reference: US7871610B2, “Antibodies to Tie1 ectodomain” (Dyax Corp., priority 2003, dated 2011)
